For assay [1], the target named is T1, human CCR8 (human, UniProt P51685 1-355). The experiment in a line: cell-based or functional assay.
Assay [2] addresses T1, human CCR8. The assay is described as follows: cell-based or functional assay. This is another data set of the same source.
Assay [3] addresses T1, human CCR8. The experiment in a line: flow cytometry on mammalian cells expressing human CCR8.

Changes are numbered by the printed parent chain.

T1 sequence (P51685 whole entry): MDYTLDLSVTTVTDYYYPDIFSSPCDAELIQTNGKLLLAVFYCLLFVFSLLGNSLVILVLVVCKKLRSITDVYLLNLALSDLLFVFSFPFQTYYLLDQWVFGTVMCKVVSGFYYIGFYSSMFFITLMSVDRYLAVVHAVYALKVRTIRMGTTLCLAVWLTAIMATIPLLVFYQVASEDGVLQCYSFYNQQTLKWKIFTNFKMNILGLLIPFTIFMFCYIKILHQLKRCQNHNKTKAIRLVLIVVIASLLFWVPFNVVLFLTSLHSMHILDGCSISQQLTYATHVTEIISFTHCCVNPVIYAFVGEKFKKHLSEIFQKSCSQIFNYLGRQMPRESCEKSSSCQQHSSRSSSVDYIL

B1: ADI-40352 (antibody, V domains shown)
VH: QLQLQESGPGLVKPSETLSLTCTVSGGSISSSSYAWGWIRQPPGKRLEWIGSIYYTGSTYYNPSLKSRVTISVDTSKNQFSLKLSSVTAADTAVYYCLRGHRRDYIAFDIWGQGTMVTVSS
VL: DIQMTQSPSSLSASVGDRVTITCRASQSISSYLNWYQQKPGKAPKLLIYAASSLQSGVPSRFSGSGSGTDFTLTISSLQPEDFATYYCQQSHNLPTFGGGTKVEIK
For B1, in the assay with human CCR8 [1], the “IC50 antagonism of EC80 Human CCL1 Gα15/16 Biosensor” value amounted to 0.439 nM and the “IC50 antagonism of EC80 Human CCL1 Gαz Biosensor” value worked out at 2.39 nM. In addition, in the assay with human CCR8 [2], the “EC50 of hCCR8-specific internalization” value amounted to 5.7 mg/L.

B2: ADI-40360 (antibody, V domains shown)
VH: B1 VH with L98V
VL: B1 VL
Turning to B2, in the assay with human CCR8 [1], the “IC50 antagonism of EC80 Human CCL1 Gα15/16 Biosensor” value amounted to 1.78 nM and the “IC50 antagonism of EC80 Human CCL1 Gαz Biosensor” value is 1.14 nM. Moreover, the “EC50 of hCCR8-specific internalization” value in the assay with human CCR8 [2] was 2.8 mg/L.

B3: ADI-46663 (antibody, V domains shown)
VH: EVQLVESGGGLVQPGGSLRLSCAASGFTFNAYAMNWVRQAPGKGLEWVARIRSKSNNYATYYADSVKDRFTISRDDSKNSLYLQMNSLKTEDTAVYYCVRQSYGNSNYAMDYWGQGTTVTVSS
VL: DIVMTQSPLSLPVTPGEPASISCRSSKSLLHSNGNTYLYWYLQKPGQSPQLLIYRMSNLASGVPDRFSGSGSGTDFTLKISRVEAEDVGVYYCMQHLEYPFTFGGGTKVEIK
In the case of B3, in the assay with human CCR8 [1], the “IC50 antagonism of EC80 Human CCL1 Gα15/16 Biosensor” value is 1.26 nM and the “IC50 antagonism of EC80 Human CCL1 Gαz Biosensor” value turned out to be 1.79 nM.

B4: ADI-40327 (antibody, V domains shown)
VH: QVQLQESGPGLVKPSETLSLTCAVSGYSISSGYYWGWIRQPPGKGLEWIGSIYHSGNTYYRPSLKSRVTISVDTSKNQFSLKLSSVTAADTAVYYCARGKGGSWTAFGPWGQGTLVTVSS
VL: DIQMTQSPSSLSASVGDRVTITCRASQSISSFLNWYQQKPGKAPKLLISAASSLQSGVPSRFSGSGSGTDFTLTISSLQPEDFATYYCQQGHSTPPTFGGGTKVEIK
B4: in the assay with human CCR8 [1], the “IC50 antagonism of EC80 Human CCL1 Gα15/16 Biosensor” value stood at 4.61 nM and the “IC50 antagonism of EC80 Human CCL1 Gαz Biosensor” value was 5.46 nM. Besides, the “EC50 of hCCR8-specific internalization” value in the assay with human CCR8 [2] turned out to be 14.3 mg/L.

B5: ADI-40306 (antibody, V domains shown)
VH: QVQLVESGGGVVQPGRSLRLSCAASGFTFSSYGMHWVRQAPGKGLEWVAVISYDGSNKYYAFSVKGRFTISRDNSKNTLYLQMNSLRVEDTAVYYCARVRRIAGRAGYGMDVWGQGTTVTVSS
VL: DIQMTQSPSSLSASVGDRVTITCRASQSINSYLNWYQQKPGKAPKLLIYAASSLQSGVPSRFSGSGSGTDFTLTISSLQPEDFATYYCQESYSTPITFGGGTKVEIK
Consider B5, for which, in the assay with human CCR8 [1], the “IC50 antagonism of EC80 Human CCL1 Gα15/16 Biosensor” value was 29.8 nM and the “IC50 antagonism of EC80 Human CCL1 Gαz Biosensor” value is 18.9 nM.

B6: ADI-35281 (antibody, V domains shown)
VH: EVKLEQSGGGLVQPKGSLKLSCVASGFTFNAYAMNWVRQAPGQGLEWVARIRSKSNNYATYYAASVKDRFTISRDDSQSILYLQMNNLKTEDTAMYYCVRQSYGNSNYAMDYWGQGTTVTVSS
VL: DIQLTQSPPSVPVTPGESVSISCRSSKSLLHSNGNTYLYWFLQRPGQSPQLLIYRKSNLASGVPDRFSGSGSGTAFTLRISRVEAEDVGVYYCMQHLEYPFTFGGGTKLEIK
notes: Produced as IgG
For B6, the “MFI Fold over Background” value in the assay with human CCR8 [3] is 336 fold over background.

For the origin of these results see patent US20250019449A1 (Memorial Sloan Kettering, published 2025).
